According to patent US20250066503A1, “CELL INJURY INDUCING THERAPEUTIC DRUG FOR USE IN CANCER THERAPY” (CHUGAI SEIYAKU KABUSHIKI KAISHA, priority 2016, published 2025):

How the values were obtained:
[1] = tested on: MKN45 and NCI-H446 tumor tissues; assay: Comprehensive RNA analysis of tumor tissues using nCounter; format: in vivo, humanized NOG mice; conditions: in combination with paclitaxel or capecitabine; compared to antibody-38 or the chemotherapeutic agent alone
Protocol: RNA was extracted from tumor samples after administration of paclitaxel, cisplatin, or capecitabine and antibody-38. Comprehensive RNA analysis using nCounter, tumor infiltrating lymphocyte (TIL) analysis, and pathological analysis were performed as follows.
(§1) The tumor samples were prepared as follows. The tumor samples when antibody-38 was used in combination with a chemotherapeutic agent in the humanized NOG mouse model were prepared by the procedure described below. 2.5 Gy of X ray was irradiated to NOG mice (In-Vivo Science Inc., Y). On the following day, 1×10^5 CD34-positive hematopoietic stem cells which are derived from umbilical cord blood were transplanted into the NOG mice by tail vein injection. After 16 to 20 weeks, each of human cancer cell lines (MKN45 and NCI-H446) was mixed with Matrigel™ Basement Membrane Matrix, and transplanted subcutaneously into the humanized NOG mice. The day of transplantation was defined as Day 0.
When tumor was established, the mice were separated into groups based on tumor size and body weight. Antibody-38 and the pharmaceutical agents for use in combination were administered according to the dose and dosing regimen described in Table 21. […]
RNA analysis was performed as follows. RNA was extracted (miRNeasy Mini Kit, QIAGEN) from the above-described tumor samples and the RNA concentrations were determined (NanoDrop, Thermo Fisher Scientific). […]

[2] = tested on: NCI-H446 tumor tissues; assay: Histopathological evaluation of HE-stained tumor tissues; format: in vivo, humanized NOG mice
Protocol: as §1
When tumor was established, the mice were separated into groups based on tumor size and body weight. Antibody-38 and the pharmaceutical agents for use in combination were administered according to the dose and dosing regimen described in Table 21. The mice were euthanized at the timing described in Table 21, and tumor was excised and preserved for use in tumor infiltrating lymphocyte (TIL) analysis, pathological analysis, or RNA analysis.
With respect to histological analysis of tumor tissues, tumor samples from mice six days after administration of antibody-38 and paclitaxel were fixed in 10% formaldehyde neutral buffer solution. […]

[3] = tested on: MKN74, FU-97, SNU-1, SCC152, KYSE70, PC-10, HuH-7, TOV-21G, RMG-1 and STM-03 xenograft tumors; assay: In vivo drug efficacy, NOD scid/T cell-injected model, xenograft tumors of various cancer types; parameters: species or system NOD scid mice; conditions: 1 mg/kg once through the tail vein; compared to the vehicle-administered group
Protocol: (§2) Methods called an NOD scid/T cell-injected model, a humanized NOG mouse model, and a human CD3εδγ gene-modified mouse model were used in the in vivo drug efficacy evaluation. Assay using an NOD scid/T cell-injected model was performed as follows. […] T cells expanded by culturing human PBMCs in vitro were injected into the NOD scid mice with confirmed tumor establishment. The mice were treated by administering bispecific antibody-38 and bispecific antibody-30, -31, -32, or -33. Assay using a humanized NOG mouse model was performed as follows. CD34-positive hematopoietic stem cells derived from umbilical cord blood were transplanted into NOG mice by tail vein injection. Human T cells are constantly supplied in the mice, which are called humanized NOG mice. The PC-10 cell line was transplanted into humanized NOG mice. The humanized NOG mice with confirmed establishment of PC-10 tumor were treated by administering antibody-38. Assay using a human CD3εδγ gene-modified mouse model was performed as follows. Cells of mouse-derived cell line forced to express human GPC3 were transplanted into a human CD3εδγ gene-modified mouse model, which had been prepared according to Reference Example 10. The human CD3εδγ gene-modified mice with confirmed tumor establishment were treated by administering antibody-38. […]

[4] = tested on: LLC1/hGPC3 syngeneic tumor; assay: In vivo drug efficacy, human CD3εδγ gene-modified mouse model; parameters: species or system human CD3εδγ gene-modified mice; conditions: 5 mg/kg Day 11 and Day 14, compared to solvent group or anti-human GPC3, anti-mouse CTLA-4, PD-1, PD-L1 antibodies at 25 mg/kg
Protocol: as §2

B1: antibody-38: anti-human CD3ε chain and anti-human GPC3 bispecific antibody; H chains SEQ ID NO: 385 and 402, common L chains SEQ ID NO: 410 (antibody)
heavy 1: QVQLVQSGAEVKKPGASVTVSCKASGYTFTDYEMHWIRQPPGEGLEWIGAIDGPTPDTAYSEKFKGRVTLTADKSTSTAYMELSSLTSEDTAVYYCTRFYSYTYWGQGTLVTVSSASTKGPSVFPLAPCSRSTSESTAALGCLVKDYFPEPVTVSWNSGALTSGVHTFPAVLQSSGLYSLSSVVTVPSSSLGTQTYTCNVDHKPSNTKVDKRVESKYGPPCPPCPAPEFRGGPKVFLFPPKPKDTLMISRTPEVTCVVVDVSQEDPEVQFNWYVDGVEVHNAKTKPREEQFASTYRVVSVLTVLHQDWLNGKEYKCKVSNKGLPSSIEKTISKAKGQPREPQVYTLPPSQEEMTKNQVSLTCLVKGFYPSDIAVEWESNGQPENNYKTTPPVLDSDGSFFLYSKLTVDKSRWQEGNVFSCSVMHEALHNHYTQESLSLSP
heavy 2: QVQLVESGGGVVQPGGSLRLSCAASGFTFSNAWMHWVRQAPGKGLEWVAQIKDKSQNYATYVAESVKGRFTISRADSKNSIYLQMNSLKTEDTAVYYCRYVHYAAGYGVDIWGQGTTVTVSSASTKGPSVFPLAPCSRSTSESTAALGCLVKDYFPEPVTVSWNSGALTSGVHTFPAVLQSSGLYSLSSVVTVPSSSLGTKTYTCNVDHKPSNTKVDKRVESKYGPPCPPCPAPEFRGGPKVFLFPPKPKDTLMISRTPEVTCVVVDVSQEDPEVQFNWYVDGVEVHNAKTKPREEQFASTYRVVSVLTVLHQDWLNGKEYKCKVSNKGLPSSIEKTISKAKGQPREPQVYTLPPSQKEMTKNQVSLTCLVKGFYPSDIAVEWESNGQPENNYKTTPPVLDSDGSFFLYSKLTVDKSRWQEGNVFSCSVMHEALHNHYTQKSLSLSP
light: DIVMTQSPLSLPVTPGEPASISCRSSQPLVHSNRNTYLHWYQQKPGQAPRLLIYKVSNRFSGVPDRFSGSGSGTDFTLKISRVEAEDVGVYYCGQGTQVPYTFGQGTKLEIKRTVAAPSVFIFPPSDEQLKSGTASVVCLLNNFYPREAKVQWKVDNALQSGNSQESVTEQDSKDSTYSLSSTLTLSKADYEKHKVYACEVTHQGLSSPVTKSFNRGEC
modifications: An artificially generated sequence
- expressions of genes involved in the progress of cell cycle [1]: suppressed
- expressions of immune cell markers, chemokines, cytokines, genes involved in cell death, genes involved in cell cycle regulation [1]: increased
- immune cell infiltration ([2]; antibody 38 administered, six days after administration): observed around the tumor periphery
- immune cell infiltration area ([2]; antibody-38 in combination with paclitaxel): expanded
- anti-tumor effect [3]: evident anti-tumor effect
- anti-tumor effect [4]: evident anti-tumor effect
